Experimental data published in paper PMC9482650, “Quantitative fragmentomics allow affinity mapping of interactomes” (Nature Communications, 2022).

T1: APBA1_2, Q02410
T1 sequence (Q02410 742-832, limits assumed, looked up): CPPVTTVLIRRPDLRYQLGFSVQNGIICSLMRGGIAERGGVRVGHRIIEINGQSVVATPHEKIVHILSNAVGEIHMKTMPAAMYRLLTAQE

T2: PARD3B_1, Q8TEW8
T2 sequence (Q8TEW8 196-299, limits assumed, looked up): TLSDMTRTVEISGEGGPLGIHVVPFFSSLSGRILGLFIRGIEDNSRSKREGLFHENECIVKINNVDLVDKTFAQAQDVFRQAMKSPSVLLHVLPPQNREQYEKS

T3: SNTG1, Q9NSN8
T3 sequence (Q9NSN8 52-150, limits assumed, looked up): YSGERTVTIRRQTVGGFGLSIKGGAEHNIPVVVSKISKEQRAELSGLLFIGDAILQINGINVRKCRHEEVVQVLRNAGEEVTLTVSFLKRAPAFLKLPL

T4: CARD11, Q9BXL7
T4 sequence (Q9BXL7 662-765, limits assumed, looked up): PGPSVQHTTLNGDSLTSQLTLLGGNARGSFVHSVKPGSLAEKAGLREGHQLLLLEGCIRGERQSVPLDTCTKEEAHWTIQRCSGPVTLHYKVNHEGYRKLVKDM

T5: LRRC7, Q96NW7
T5 sequence (Q96NW7 1440-1537, limits assumed, looked up): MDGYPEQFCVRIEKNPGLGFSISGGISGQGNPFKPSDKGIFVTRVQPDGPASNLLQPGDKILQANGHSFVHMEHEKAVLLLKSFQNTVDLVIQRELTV

T6: NHERF3_3, Q5T2W1
T6 sequence (Q5T2W1 238-333, limits assumed, looked up): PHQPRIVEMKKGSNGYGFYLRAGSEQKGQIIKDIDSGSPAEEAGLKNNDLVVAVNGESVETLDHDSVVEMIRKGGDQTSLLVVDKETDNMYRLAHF

T7: SNTG2, Q9NY99
T7 sequence (Q9NY99 68-166, limits assumed, looked up): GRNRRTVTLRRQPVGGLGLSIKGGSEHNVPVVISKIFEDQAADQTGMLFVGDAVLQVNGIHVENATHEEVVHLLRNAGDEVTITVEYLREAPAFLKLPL

T8: MPP6, Q9NZW5
T8 sequence (Q9NZW5 125-219, limits assumed, looked up): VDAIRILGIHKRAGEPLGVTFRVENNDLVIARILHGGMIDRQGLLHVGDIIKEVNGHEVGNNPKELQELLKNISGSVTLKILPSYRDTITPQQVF

T9: NHERF3_1, Q5T2W1
T9 sequence (Q5T2W1 4-100, limits assumed, looked up): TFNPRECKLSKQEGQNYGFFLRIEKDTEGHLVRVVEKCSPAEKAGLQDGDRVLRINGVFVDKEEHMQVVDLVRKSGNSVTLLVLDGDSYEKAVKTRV


These binders were tested against DLG2_2, Q15700 (assay: holdup assay). Details: plain residues with an end cap or a label only (N-terminal biotin on a linker: ado-ado).
Sequence of DLG2_2, Q15700 (Q15700 189-283): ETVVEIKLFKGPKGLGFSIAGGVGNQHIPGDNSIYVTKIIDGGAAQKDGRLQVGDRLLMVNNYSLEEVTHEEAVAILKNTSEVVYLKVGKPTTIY
Design: key: below the threshold = too weak to quantify, mostly under pKd 3.1 to 4

pKd	Binder
below the threshold	DLLGGGSDSI [TNRC6B, Q9UPQ9]

Each binder was assayed against SCRIB_3, Q14160 (assay: holdup assay). Details: plain residues with an end cap or a label only (N-terminal biotin on a linker: ado-ado).
Sequence of SCRIB_3, Q14160 (Q14160 999-1103): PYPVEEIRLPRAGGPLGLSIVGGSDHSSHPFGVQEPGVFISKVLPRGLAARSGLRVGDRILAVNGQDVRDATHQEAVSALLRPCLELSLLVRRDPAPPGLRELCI
Design: key: below the threshold = too weak to quantify, mostly under pKd 3.1 to 4

pKd	Binder
below the threshold	DLLGGGSDSI [TNRC6B, Q9UPQ9]

Each binder was assayed against T1, APBA1_2, Q02410 (assay: holdup assay). Details: plain residues with an end cap or a label only (N-terminal biotin on a linker: ado-ado).
Design: key: below the threshold = too weak to quantify, mostly under pKd 3.1 to 4

pKd	Binder
below the threshold	DLLGGGSDSI [TNRC6B, Q9UPQ9]

Each binder was assayed against PICK1, Q9NRD5 (assay: holdup assay). Details: plain residues with an end cap or a label only (N-terminal biotin on a linker: ado-ado).
Sequence of PICK1, Q9NRD5 (Q9NRD5 17-115): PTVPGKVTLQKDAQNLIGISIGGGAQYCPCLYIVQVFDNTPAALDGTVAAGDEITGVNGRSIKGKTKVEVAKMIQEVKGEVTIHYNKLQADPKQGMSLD
Design: key: below the threshold = too weak to quantify, mostly under pKd 3.1 to 4

pKd	Binder
below the threshold	DLLGGGSDSI [TNRC6B, Q9UPQ9]

Each binder was assayed against T2, PARD3B_1, Q8TEW8 (assay: holdup assay). Details: plain residues with an end cap or a label only (N-terminal biotin on a linker: ado-ado).
Design: key: below the threshold = too weak to quantify, mostly under pKd 3.1 to 4

pKd	Binder
below the threshold	DLLGGGSDSI [TNRC6B, Q9UPQ9]

These binders were tested against NHERF4_4, Q86UT5 (assay: holdup assay). Details: plain residues with an end cap or a label only (N-terminal biotin on a linker: ado-ado).
Sequence of NHERF4_4, Q86UT5 (Q86UT5 464-550): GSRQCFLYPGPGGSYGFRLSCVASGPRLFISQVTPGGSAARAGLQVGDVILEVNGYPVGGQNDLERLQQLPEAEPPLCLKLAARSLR
Design: key: below the threshold = too weak to quantify, mostly under pKd 3.1 to 4

pKd	Binder
below the threshold	DLLGGGSDSI [TNRC6B, Q9UPQ9]

What follows are binders tested against SCRIB_1, Q14160 (assay: holdup assay). Details: plain residues with an end cap or a label only (N-terminal biotin on a linker: ado-ado).
Sequence of SCRIB_1, Q14160 (Q14160 718-814): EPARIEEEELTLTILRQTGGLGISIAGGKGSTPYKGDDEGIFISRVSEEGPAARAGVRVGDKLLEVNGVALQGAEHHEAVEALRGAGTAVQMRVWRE
Design: key: below the threshold = too weak to quantify, mostly under pKd 3.1 to 4

pKd	Binder
below the threshold	DLLGGGSDSI [TNRC6B, Q9UPQ9]

These binders were tested against T3, SNTG1, Q9NSN8 (assay: holdup assay). Details: plain residues with an end cap or a label only (N-terminal biotin on a linker: ado-ado).
Design: key: below the threshold = too weak to quantify, mostly under pKd 3.1 to 4

pKd	Binder
below the threshold	DLLGGGSDSI [TNRC6B, Q9UPQ9]

These binders were tested against Inadl_3, Q8NI35 (assay: holdup assay). Details: plain residues with an end cap or a label only (N-terminal biotin on a linker: ado-ado).
Sequence of Inadl_3, Q8NI35 (Q8NI35 359-469): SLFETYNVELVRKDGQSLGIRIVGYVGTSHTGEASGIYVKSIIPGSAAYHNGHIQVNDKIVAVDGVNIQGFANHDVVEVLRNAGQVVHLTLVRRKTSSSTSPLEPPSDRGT
Design: key: below the threshold = too weak to quantify, mostly under pKd 3.1 to 4

pKd	Binder
below the threshold	DLLGGGSDSI [TNRC6B, Q9UPQ9]

The binders below were run against LIMK2, P53671 (assay: holdup assay). Details: plain residues with an end cap or a label only (N-terminal biotin on a linker: ado-ado).
Sequence of LIMK2, P53671 (P53671 143-248): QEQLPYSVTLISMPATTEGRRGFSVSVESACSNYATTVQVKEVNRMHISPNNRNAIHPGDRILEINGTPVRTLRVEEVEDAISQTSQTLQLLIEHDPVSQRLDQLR
Design: key: below the threshold = too weak to quantify, mostly under pKd 3.1 to 4

pKd	Binder
below the threshold	DLLGGGSDSI [TNRC6B, Q9UPQ9]

The binders below were run against GRIP2_6, Q9C0E4 (assay: holdup assay). Details: plain residues with an end cap or a label only (N-terminal biotin on a linker: ado-ado).
Sequence of GRIP2_6, Q9C0E4 (Q9C0E4 648-740): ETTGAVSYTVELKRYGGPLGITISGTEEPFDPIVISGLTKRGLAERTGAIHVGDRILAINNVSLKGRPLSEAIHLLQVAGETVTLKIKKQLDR
Design: key: below the threshold = too weak to quantify, mostly under pKd 3.1 to 4

pKd	Binder
below the threshold	DLLGGGSDSI [TNRC6B, Q9UPQ9]

What follows are binders tested against T4, CARD11, Q9BXL7 (assay: holdup assay). Details: plain residues with an end cap or a label only (N-terminal biotin on a linker: ado-ado).
Design: key: below the threshold = too weak to quantify, mostly under pKd 3.1 to 4

pKd	Binder
below the threshold	DLLGGGSDSI [TNRC6B, Q9UPQ9]

The binders below were run against TJP1_3, Q07157 (assay: holdup assay). Details: plain residues with an end cap or a label only (N-terminal biotin on a linker: ado-ado).
Sequence of TJP1_3, Q07157 (Q07157 416-512): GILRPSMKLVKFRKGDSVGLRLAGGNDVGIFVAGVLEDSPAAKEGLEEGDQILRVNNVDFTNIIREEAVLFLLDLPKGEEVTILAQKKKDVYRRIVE
Design: key: below the threshold = too weak to quantify, mostly under pKd 3.1 to 4

pKd	Binder
below the threshold	DLLGGGSDSI [TNRC6B, Q9UPQ9]

The binders below were run against DLG5_1, Q8TDM6 (assay: holdup assay). Details: plain residues with an end cap or a label only (N-terminal biotin on a linker: ado-ado).
Sequence of DLG5_1, Q8TDM6 (Q8TDM6 617-713): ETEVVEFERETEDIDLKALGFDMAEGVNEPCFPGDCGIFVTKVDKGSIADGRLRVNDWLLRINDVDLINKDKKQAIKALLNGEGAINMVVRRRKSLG
Design: key: below the threshold = too weak to quantify, mostly under pKd 3.1 to 4

pKd	Binder
below the threshold	DLLGGGSDSI [TNRC6B, Q9UPQ9]

Each binder was assayed against IL16_4, Q14005 (assay: holdup assay). Details: plain residues with an end cap or a label only (N-terminal biotin on a linker: ado-ado).
Sequence of IL16_4, Q14005 (Q14005 1229-1329): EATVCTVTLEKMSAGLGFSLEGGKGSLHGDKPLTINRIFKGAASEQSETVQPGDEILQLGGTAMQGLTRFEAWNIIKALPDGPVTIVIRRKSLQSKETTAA
Design: key: below the threshold = too weak to quantify, mostly under pKd 3.1 to 4

pKd	Binder
3.61	DLLGGGSDSI [TNRC6B, Q9UPQ9]

Each binder was assayed against LNX1_1, Q8TBB1 (assay: holdup assay). Details: plain residues with an end cap or a label only (N-terminal biotin on a linker: ado-ado).
Sequence of LNX1_1, Q8TBB1 (Q8TBB1 261-371): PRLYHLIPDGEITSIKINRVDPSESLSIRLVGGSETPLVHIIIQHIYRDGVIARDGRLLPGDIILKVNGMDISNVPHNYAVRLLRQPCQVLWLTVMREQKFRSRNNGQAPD
Design: key: below the threshold = too weak to quantify, mostly under pKd 3.1 to 4

pKd	Binder
3.76	DLLGGGSDSI [TNRC6B, Q9UPQ9]

What follows are binders tested against T5, LRRC7, Q96NW7 (assay: holdup assay). Details: plain residues with an end cap or a label only (N-terminal biotin on a linker: ado-ado).
Design: key: below the threshold = too weak to quantify, mostly under pKd 3.1 to 4

pKd	Binder
below the threshold	DLLGGGSDSI [TNRC6B, Q9UPQ9]

The binders below were run against LDB3, O75112 (assay: holdup assay). Details: plain residues with an end cap or a label only (N-terminal biotin on a linker: ado-ado).
Sequence of LDB3, O75112 (O75112 1-94): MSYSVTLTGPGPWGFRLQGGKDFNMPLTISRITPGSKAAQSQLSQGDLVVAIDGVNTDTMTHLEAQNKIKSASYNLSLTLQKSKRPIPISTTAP
Design: key: below the threshold = too weak to quantify, mostly under pKd 3.1 to 4

pKd	Binder
below the threshold	DLLGGGSDSI [TNRC6B, Q9UPQ9]

The binders below were run against DLG1_3, Q12959 (assay: holdup assay). Details: plain residues with an end cap or a label only (N-terminal biotin on a linker: ado-ado).
Sequence of DLG1_3, Q12959 (Q12959 457-571): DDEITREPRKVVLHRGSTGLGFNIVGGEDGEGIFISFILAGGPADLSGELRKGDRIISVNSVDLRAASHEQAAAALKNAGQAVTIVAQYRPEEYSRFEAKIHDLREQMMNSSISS
Design: key: below the threshold = too weak to quantify, mostly under pKd 3.1 to 4

pKd	Binder
below the threshold	DLLGGGSDSI [TNRC6B, Q9UPQ9]

Each binder was assayed against T6, NHERF3_3, Q5T2W1 (assay: holdup assay). Details: plain residues with an end cap or a label only (N-terminal biotin on a linker: ado-ado).
Design: key: below the threshold = too weak to quantify, mostly under pKd 3.1 to 4

pKd	Binder
below the threshold	DLLGGGSDSI [TNRC6B, Q9UPQ9]

These binders were tested against PTPN3, P26045 (assay: holdup assay). Details: plain residues with an end cap or a label only (N-terminal biotin on a linker: ado-ado).
Sequence of PTPN3, P26045 (P26045 505-587): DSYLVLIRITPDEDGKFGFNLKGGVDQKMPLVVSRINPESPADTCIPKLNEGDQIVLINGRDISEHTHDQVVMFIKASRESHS
Design: key: below the threshold = too weak to quantify, mostly under pKd 3.1 to 4

pKd	Binder
below the threshold	DLLGGGSDSI [TNRC6B, Q9UPQ9]

These binders were tested against T7, SNTG2, Q9NY99 (assay: holdup assay). Details: plain residues with an end cap or a label only (N-terminal biotin on a linker: ado-ado).
Design: key: below the threshold = too weak to quantify, mostly under pKd 3.1 to 4

pKd	Binder
below the threshold	DLLGGGSDSI [TNRC6B, Q9UPQ9]

The binders below were run against IL16_1, Q14005 (assay: holdup assay). Details: plain residues with an end cap or a label only (N-terminal biotin on a linker: ado-ado).
Sequence of IL16_1, Q14005 (Q14005 210-306): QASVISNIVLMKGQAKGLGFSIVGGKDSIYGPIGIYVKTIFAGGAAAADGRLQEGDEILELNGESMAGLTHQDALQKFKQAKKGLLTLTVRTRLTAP
Design: key: below the threshold = too weak to quantify, mostly under pKd 3.1 to 4

pKd	Binder
below the threshold	DLLGGGSDSI [TNRC6B, Q9UPQ9]

The binders below were run against T8, MPP6, Q9NZW5 (assay: holdup assay). Details: plain residues with an end cap or a label only (N-terminal biotin on a linker: ado-ado).
Design: key: below the threshold = too weak to quantify, mostly under pKd 3.1 to 4

pKd	Binder
below the threshold	DLLGGGSDSI [TNRC6B, Q9UPQ9]

The binders below were run against MAGI2_3, Q86UL8 (assay: holdup assay). Details: plain residues with an end cap or a label only (N-terminal biotin on a linker: ado-ado).
Sequence of MAGI2_3, Q86UL8 (Q86UL8 600-682): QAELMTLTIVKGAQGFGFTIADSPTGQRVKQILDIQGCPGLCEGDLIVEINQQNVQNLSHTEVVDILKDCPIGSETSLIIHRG
Design: key: below the threshold = too weak to quantify, mostly under pKd 3.1 to 4

pKd	Binder
below the threshold	DLLGGGSDSI [TNRC6B, Q9UPQ9]

The binders below were run against GRASP, Q7Z6J2 (assay: holdup assay). Details: plain residues with an end cap or a label only (N-terminal biotin on a linker: ado-ado).
Sequence of GRASP, Q7Z6J2 (Q7Z6J2 96-193): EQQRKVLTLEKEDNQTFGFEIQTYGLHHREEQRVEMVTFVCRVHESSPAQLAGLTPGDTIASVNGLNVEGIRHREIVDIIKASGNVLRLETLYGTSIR
Design: key: below the threshold = too weak to quantify, mostly under pKd 3.1 to 4

pKd	Binder
below the threshold	DLLGGGSDSI [TNRC6B, Q9UPQ9]

The binders below were run against AHNAK1, Q09666 (assay: holdup assay). Details: plain residues with an end cap or a label only (N-terminal biotin on a linker: ado-ado).
Sequence of AHNAK1, Q09666 (Q09666 4-100): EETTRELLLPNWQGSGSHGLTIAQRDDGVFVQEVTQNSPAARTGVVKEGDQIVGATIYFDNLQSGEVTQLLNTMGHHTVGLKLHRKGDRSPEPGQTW
Design: key: below the threshold = too weak to quantify, mostly under pKd 3.1 to 4

pKd	Binder
below the threshold	DLLGGGSDSI [TNRC6B, Q9UPQ9]

The binders below were run against T9, NHERF3_1, Q5T2W1 (assay: holdup assay). Details: plain residues with an end cap or a label only (N-terminal biotin on a linker: ado-ado).
Design: key: below the threshold = too weak to quantify, mostly under pKd 3.1 to 4

pKd	Binder
below the threshold	DLLGGGSDSI [TNRC6B, Q9UPQ9]
